For 2 substances, percent unbound and binding efficiency (percent of protein bound to resin) results are on record in patent US20220056072A1.

Experiment [1] deals with High Capacity NeutrAvidin Agarose Resin (UniProt P02701). The experiment in a line: pull-down on NeutrAvidin Agarose resin, SDS-PAGE of the fractions.
Experiment [2] has the same target. Description: pull-down on NeutrAvidin Agarose resin, 1 uM protein, 2 hrs at 4 C; bound fraction from A280 of flow-through and wash.

Chain of UniProt P02701 (P02701 25-152): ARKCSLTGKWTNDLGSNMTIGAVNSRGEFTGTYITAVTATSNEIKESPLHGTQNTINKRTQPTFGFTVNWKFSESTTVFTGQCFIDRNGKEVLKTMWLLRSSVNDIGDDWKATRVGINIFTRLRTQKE

Substance IPL biotin-labeled mRuby3 returned a percent unbound in experiment [1] of 35%. For the same substance, the binding efficiency (percent of protein bound to resin) in experiment [2] came out at 65%.

In experiment [2], unlabeled mRuby3 came in with a binding efficiency (percent of protein bound to resin) of 10%.
